Our source for the Kd values is PMC3630801.

For this assay, the target named is TonB_(ΔTMD) L194C labeled with BODIPY FL (Escherichia coli) (UniProt P02929). Briefly: fluorescence polarisation. In general terms: Polarisation of emitted light reports the rotation of a fluorescent probe.

By Kd is commonly meant the concentration at which binding is half-saturated. Lower therefore signals higher affinity.

Take “BtuB with bound colicin E3 receptor-binding fragment (ColE3R) (from UniProt P06129 21-614; P00646 1-551) (complex)”: the Kd came out at 1500 nM. In other words, the single-digit micromolar range.
